# Test results from paper PMC5442324, “Zinc is a potent and specific inhibitor of IFN-λ3 signalling” (Nature Communications, 2017).
# What was measured:
# IFN-α (Roferon-A) = IFN-α (Roferon-A) (UniProt P01563); assay: zinc IMAC resin binding and SDS-PAGE; 200 ng IFN-α or IFN-λ3 on IMAC-Select gel charged with ZnSO4, 4 °C, 50 mM NaH2PO4, 300 mM NaCl, pH 8.0; eluted with 100 mM EDTA; SDS-PAGE, SYPRO ruby; bands read as monomer and dimer
# [1] = molecular target: the molecule itself; assay: as above
Molecule,stoichiometry N (IFN-α (Roferon-A)),stoichiometry N [1]
IFN-α (Roferon-A) (from UniProt P01563 24-188) (ligand),2,
"recombinant human IFN-λ3 (ligand, UniProt Q8IZI9 22-196, looked up, IFN-λ3 (interferon lambda 3), human, recombinant, R&D Systems; (Cys169); also called interferon lambda 3; IFNL3; source: bought: R&D Systems) VPVARLRGALPDARGCHIAQFKSLSPQELQAFKRAKDALEESLLLKDCKCRSRLFPRTWDLRQLQVRERPVALEAELALTLKVLEATADTDPALGDVLDQPLHTLHHILSQLRACIQPQPTAGPRTRGRLHHWLHRLQEAPKKESPGCLEASVTFNLFRLLTRDLNCVASGDLCV",,2
